Data as given in paper PMC9475553, “SHF Acts as a Novel Tumor Suppressor in Glioblastoma Multiforme by Disrupting STAT3 Dimerization” (Advanced Science, 2022).

Biological target: T1, recombinant STAT3 (immobilized, static adsorption assay) (UniProt P40763 1-770)
T1 construct: STAT3, called 'recombinant STAT3' in the legend and 'immobilized STAT3 peptide' in the results; also called immobilized STAT3; STAT3 (powder)
Assay: static adsorption equilibrium assay; immobilized STAT3 (85 nmol g^-1 wet gel) in 20 mL PBS with 2-20 µM C16 or scramble, stirred 12 h; free peptide by absorbance at 240 nm; Langmuir isotherm
Settings: both partners purified

T1 sequence (P40763 whole entry): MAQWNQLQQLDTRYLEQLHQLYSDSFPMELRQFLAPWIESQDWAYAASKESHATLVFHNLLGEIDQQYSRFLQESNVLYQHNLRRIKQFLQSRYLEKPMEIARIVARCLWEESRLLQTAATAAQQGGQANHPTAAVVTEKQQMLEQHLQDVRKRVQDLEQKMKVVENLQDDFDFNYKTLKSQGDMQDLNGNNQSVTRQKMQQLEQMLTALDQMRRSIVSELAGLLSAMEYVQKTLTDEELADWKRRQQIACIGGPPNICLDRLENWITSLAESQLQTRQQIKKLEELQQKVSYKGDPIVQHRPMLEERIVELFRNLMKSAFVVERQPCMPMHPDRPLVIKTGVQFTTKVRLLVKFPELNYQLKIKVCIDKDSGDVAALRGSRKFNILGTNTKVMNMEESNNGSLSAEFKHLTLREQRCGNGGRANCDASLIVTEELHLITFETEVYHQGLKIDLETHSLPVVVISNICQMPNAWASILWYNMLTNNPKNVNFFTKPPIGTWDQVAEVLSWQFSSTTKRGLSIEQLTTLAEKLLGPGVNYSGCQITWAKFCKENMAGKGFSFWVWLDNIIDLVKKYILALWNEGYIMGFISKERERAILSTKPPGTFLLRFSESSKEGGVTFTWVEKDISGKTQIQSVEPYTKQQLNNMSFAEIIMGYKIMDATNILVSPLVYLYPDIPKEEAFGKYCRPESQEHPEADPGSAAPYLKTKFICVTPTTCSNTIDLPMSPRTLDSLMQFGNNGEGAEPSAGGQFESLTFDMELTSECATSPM

stoichiometry N: 1
B1: C16 peptide (derived from the STAT3-binding sites of SHF) (peptide, UniProt Q7M4L6 388-421, looked up)
peptide: PFSSVPEIVHHYASRKLPIKGAEHMSLLYPVAIR
modifications: palmitic acid at the N-terminus; amidated C-terminus
notes: '3× His tags' is not explained further (three histidines or three His tags); source: synthetic peptide (Genscript; solid-phase Fmoc synthesis, RP-HPLC, purity above 95%); not shown: 3× His tags, C-terminal, kept
